B1: antibody 3D8 (antibody, V domains shown)
VH: EIQLQQSGAELVKPGASVKISCKASGYSFTGYNMNWVKQSHGKSLEWIGNINPYYGSTNYNQKFKGKATLTVDKSSTTAYMQLDSLTSEDSAVYYCARGYYGGNYPFAYWGQGTLVTVSA
VL: DIQMTQSPASLSASVGETVTITCRASENIYSYLAWYQQKQGKSPQLLVYNAKTLAEGVPSRFSGSGSGTQFSLKINSLQPEDFGSYYCQHYYGTPYTFGGGSKVEIK
B2: antibody 63A3 (antibody, V domains shown)
VH: DVQLQESGPGLVKPSQSLSLTCSVTGYSITSGYYWNWIRQFPGNKLEWMGYIRYDGSNNYNPSLKNRISITRDTSKNQVFLKLNSVTPEDTATYYCARHYGYDGGAFDFWGQGTTLTVSS
VL: DIQMTQSPASLSASVGETVTITCRTSENIYNYLVWYQQKQGKSPQLLVYNAKTLEEGVPSRFSGSGSGTQFSLKVNSLQPEDFGSYYCQHHYGTPFTFGSGTKLEIK
B3: antibody 38G10 (antibody, V domains shown)
VH: EVQLQQSGPELVKPGDSVKMSCKASGYTFTDFYMDWVKQSHGKSLEWIGYIYPHNGGTTYNQNFTGKATLTVDKSSNTAYMELHSLTSEDSAVYYCARRGGFDFDYWGQGTTLTVSS
VL: NIVMTQSPKSMSLSVGERVTLRCKASENVDTYVSWYQQKPEQSPKLLIYGASNRYTGVPDRFTGSGSATEFTLTISSVQAEDLVGYHCGQSHSYPLTFGAGTKLELK
B4: antibody 62F2 (antibody, V domains shown)
VH: DVQLQESGPDLVKPSQSLSLTCTVTGYSITSGYSLHWIRQFPGNKLEWMGYIHYSGSTNYNPSLKSRISITRDTSKNQFFLKLNSVTSEDTATYHCARAWDYLDYWGQGTTLTVSS
VL: DIQMTQSPASLSASVGETVTITCRASENIYSQLAWYQQKQGKSPQLLVYDAKTLAEGVPSRFSGSGSDTQFSLKIISLQPEDFGRYYCHHHFGILYTFGGGTKLEMK
B5: antibody 38F5 (antibody, V domains shown)
VH: EVMLVESGGALVKPGGSLKLSCTASGFTFSNYAMSWVRQTPEKRLEWVAQTISSGGRYTYYPDSVKGRFTISRDNARNTLYLQMSSLRSEDTAMYYCVRRYYGNSYWYFDVWGAGTTVTVSS
VL: DIVMTQSPSSLSVSAGEKVTMNCKSSQSLLNSGNQKHYLTWYQQKPGQPPKLLIYGASTRGSGVPDRFTGSGSGTDFTLTISSVQAEDLAVYYCQNDHSYPYTFGGGTKLEIK
B6: antibody 3G8 (antibody, V domains shown)
VH: EIQLQQSGAELVKPGASVKISCMASGYSFTGYNMNWVKQSHGKGLEWIGNINPYYDSTSYNQKFKGKATLTVDKSSSTAYMQLNSLTSEDSAVYYCARENYDFVGFAYWGQGTLVTVSA
VL: QIVLSQSPAILSASPGEKVTMTCRASSSVSYMHWFQQKPGSSPKPWIYVTSNLASGVPPRFSGSGSGTSYSLTISRVEAEDAATYYCQQWSTNPLTFGAGTKLELK

Assays:
Assay in all cases: binding screen of Example 5; method and unit not stated
[1] = target: iC3b (UniProt P01024)
[2] = target: C3c (UniProt P01024)
[3] = target: C3b (human) (UniProt P01024)
Chain of C3b (human) (P01024 23-667 limits assumed, chain 1 of 2): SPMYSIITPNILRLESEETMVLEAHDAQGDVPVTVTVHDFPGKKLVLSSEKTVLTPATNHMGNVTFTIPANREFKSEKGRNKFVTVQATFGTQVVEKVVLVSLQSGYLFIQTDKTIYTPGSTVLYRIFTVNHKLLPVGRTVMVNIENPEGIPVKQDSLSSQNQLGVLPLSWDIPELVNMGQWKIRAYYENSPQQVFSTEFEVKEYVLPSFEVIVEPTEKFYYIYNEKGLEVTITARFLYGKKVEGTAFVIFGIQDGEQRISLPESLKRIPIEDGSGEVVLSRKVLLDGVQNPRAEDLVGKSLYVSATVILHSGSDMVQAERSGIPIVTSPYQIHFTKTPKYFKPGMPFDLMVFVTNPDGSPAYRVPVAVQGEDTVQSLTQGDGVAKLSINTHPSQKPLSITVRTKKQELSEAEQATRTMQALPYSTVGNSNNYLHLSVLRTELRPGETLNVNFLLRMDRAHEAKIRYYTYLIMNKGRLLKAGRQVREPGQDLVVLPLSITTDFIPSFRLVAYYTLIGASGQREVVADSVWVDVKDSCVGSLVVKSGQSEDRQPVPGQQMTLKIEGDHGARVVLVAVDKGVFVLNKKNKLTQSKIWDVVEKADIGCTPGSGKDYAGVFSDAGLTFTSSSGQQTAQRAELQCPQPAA
Chain of C3b (human) (P01024 749-1663 limits assumed, chain 2 of 2): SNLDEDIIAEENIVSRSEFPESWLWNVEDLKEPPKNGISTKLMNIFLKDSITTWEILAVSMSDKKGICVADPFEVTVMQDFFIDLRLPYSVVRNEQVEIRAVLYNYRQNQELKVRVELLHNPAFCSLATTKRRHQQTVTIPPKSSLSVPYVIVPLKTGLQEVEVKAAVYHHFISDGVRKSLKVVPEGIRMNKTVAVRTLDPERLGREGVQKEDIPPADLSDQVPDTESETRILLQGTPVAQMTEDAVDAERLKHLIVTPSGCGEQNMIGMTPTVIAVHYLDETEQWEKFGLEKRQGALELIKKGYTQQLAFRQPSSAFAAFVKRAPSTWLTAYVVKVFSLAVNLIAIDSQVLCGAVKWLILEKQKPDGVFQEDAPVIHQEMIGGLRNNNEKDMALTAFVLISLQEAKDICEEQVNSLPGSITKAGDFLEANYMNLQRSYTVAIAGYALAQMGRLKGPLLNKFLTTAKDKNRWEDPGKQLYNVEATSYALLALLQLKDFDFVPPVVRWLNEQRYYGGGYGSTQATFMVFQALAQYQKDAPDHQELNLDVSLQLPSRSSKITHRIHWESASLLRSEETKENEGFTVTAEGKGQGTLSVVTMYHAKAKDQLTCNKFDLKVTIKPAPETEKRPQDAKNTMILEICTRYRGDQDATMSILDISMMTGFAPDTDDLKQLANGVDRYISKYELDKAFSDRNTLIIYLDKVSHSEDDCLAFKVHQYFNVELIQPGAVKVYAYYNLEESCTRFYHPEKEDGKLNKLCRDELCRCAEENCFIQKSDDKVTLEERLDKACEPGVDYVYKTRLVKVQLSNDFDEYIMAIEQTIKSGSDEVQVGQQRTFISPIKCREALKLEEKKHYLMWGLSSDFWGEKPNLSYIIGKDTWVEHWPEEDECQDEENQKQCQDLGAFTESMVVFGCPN

Binder | binding relative to negative control mIgG2 [1] | binding relative to negative control mIgG2 [2] | binding relative to negative control mIgG2 [3]
B1 | 0.29 | 0.17 | –
B2 | 0.72 | 0.55 | –
B3 | 0.06 | 0.13 | 0.06
B4 | 0.49 | 0.43 | –
B5 | 0.45 | 0.45 | –
B6 | 0.25 | 0.22 | –
